Laboratory results: article PMC4066763, “Programmable DNA-binding proteins from Burkholderia provide a fresh perspective on the TALE-like repeat domain”

T1: Bat1 (BurrH) (Burkholderia rhizoxinica HKI 0454, UniProt E5AV36 1-771)
T1 sequence: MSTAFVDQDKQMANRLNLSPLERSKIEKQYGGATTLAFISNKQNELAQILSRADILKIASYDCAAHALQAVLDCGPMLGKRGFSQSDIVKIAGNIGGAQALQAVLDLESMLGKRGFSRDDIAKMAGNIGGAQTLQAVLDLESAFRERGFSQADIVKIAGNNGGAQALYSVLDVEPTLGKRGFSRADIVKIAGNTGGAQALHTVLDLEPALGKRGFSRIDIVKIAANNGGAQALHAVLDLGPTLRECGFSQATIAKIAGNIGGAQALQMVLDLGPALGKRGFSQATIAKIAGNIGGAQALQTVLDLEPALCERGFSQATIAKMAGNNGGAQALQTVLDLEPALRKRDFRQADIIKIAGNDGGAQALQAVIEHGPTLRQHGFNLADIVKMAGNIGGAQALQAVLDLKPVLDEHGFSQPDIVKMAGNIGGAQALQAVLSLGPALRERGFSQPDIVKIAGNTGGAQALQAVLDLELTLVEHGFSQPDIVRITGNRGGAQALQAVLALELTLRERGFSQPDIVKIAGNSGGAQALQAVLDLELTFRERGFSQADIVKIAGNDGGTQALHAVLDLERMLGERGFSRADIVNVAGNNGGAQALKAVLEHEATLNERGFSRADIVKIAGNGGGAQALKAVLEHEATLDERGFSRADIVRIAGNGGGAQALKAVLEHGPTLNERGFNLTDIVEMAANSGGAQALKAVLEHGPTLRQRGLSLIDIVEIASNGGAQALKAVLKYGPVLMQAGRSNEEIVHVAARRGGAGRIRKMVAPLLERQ

T2: Bat3 (Burkholderia rhizoxinica HKI 0454, UniProt E5AW43 1-311)
T2 sequence: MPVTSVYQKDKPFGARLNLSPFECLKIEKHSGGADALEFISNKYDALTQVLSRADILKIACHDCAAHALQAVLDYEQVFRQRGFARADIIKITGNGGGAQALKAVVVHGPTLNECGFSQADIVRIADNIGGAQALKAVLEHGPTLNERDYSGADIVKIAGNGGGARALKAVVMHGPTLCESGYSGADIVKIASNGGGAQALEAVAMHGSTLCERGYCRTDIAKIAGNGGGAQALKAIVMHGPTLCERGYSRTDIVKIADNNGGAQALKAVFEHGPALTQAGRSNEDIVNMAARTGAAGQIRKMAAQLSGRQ

T3: Bat2 (Burkholderia rhizoxinica HKI 0454, UniProt E5AW45 1-997)
T3 sequence: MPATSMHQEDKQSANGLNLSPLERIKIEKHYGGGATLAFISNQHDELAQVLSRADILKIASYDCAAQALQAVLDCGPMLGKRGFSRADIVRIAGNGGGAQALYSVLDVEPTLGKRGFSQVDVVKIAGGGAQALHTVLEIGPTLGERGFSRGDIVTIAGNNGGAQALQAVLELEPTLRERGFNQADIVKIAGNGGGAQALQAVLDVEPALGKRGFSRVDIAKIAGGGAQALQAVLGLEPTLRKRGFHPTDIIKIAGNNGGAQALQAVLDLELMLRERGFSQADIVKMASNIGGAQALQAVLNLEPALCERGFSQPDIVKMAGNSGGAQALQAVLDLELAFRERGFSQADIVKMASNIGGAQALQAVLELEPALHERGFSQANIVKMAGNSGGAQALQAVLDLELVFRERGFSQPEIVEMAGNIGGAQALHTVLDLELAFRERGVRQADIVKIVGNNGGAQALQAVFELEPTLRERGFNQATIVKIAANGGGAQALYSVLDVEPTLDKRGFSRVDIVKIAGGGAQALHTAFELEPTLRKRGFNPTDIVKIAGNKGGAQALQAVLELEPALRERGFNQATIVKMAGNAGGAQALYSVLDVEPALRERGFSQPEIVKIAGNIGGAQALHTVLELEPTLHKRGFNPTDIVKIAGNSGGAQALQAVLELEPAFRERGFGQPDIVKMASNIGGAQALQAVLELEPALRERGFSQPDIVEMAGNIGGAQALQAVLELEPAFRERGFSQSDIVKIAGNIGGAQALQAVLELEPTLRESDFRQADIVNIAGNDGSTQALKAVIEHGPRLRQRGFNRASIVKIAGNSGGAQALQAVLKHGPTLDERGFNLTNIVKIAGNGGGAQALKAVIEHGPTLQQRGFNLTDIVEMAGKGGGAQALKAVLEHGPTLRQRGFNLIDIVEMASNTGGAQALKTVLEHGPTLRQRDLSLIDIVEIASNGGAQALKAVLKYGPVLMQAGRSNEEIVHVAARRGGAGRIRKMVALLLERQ


Experiments:
[1] = target: T1, Bat1 (BurrH); test: MST; 10 mM MgCl2; EMSA: 15 mM Tris-Cl, 75 mM KCl, 2.5 mM DTT, 0.063% NP-40, 62.5 ng/ul dI.dC, 0.125 mg/ml BSA, 6.25% glycerol, 6.25 mM MgCl2, 0.125 mM EDTA, room temp, gel at 4 C; MST: 20 mM Tris pH 7.4, 150 mM NaCl, 10 mM MgCl2, 0.05% Tween, room temp, 100 nM labelled Bat1; conditions: protein: recombinant; tags: N-terminal His; label: none (stated unlabelled)
[2] = target: T2, Bat3; test: EMSA; 100 nM protein, 10 nM DNA, poly dI.dC; EMSA: 15 mM Tris-Cl, 75 mM KCl, 2.5 mM DTT, 0.063% NP-40, 62.5 ng/ul dI.dC, 0.125 mg/ml BSA, 6.25% glycerol, 6.25 mM MgCl2, 0.125 mM EDTA, room temp, gel at 4 C; MST: 20 mM Tris pH 7.4, 150 mM NaCl, 10 mM MgCl2, 0.05% Tween, room temp, 100 nM labelled Bat1; conditions: protein: recombinant; tags: N-terminal His; label: 5' Cy5 forward strand
[3] = target: T1, Bat1 (BurrH); test: as above; conditions: protein: recombinant; tags: N-terminal His; label: 5' Cy5 forward strand
[4] = target: T3, Bat2; test: as above; conditions: protein: recombinant; tags: N-terminal His; label: 5' Cy5 forward strand

Binder	binding result [1]	binding result [2]	binding result [4]	also measured
BEBat1 A-0, MST (dsDNA) DNA 1: TAGACAAAGAGAAGCAAAGACGTTATATGC DNA 2: GCATATAACGTCTTTGCTTCTCTTTGTCTA	binds			
BEBat3, EMSA (dsDNA) DNA 1: TAGACATAGATTATTATATTTGTAACAAGTAAATGC DNA 2: GCATTTACTTGTTACAAATATAATAATCTATGTCTA		no binding	no binding	binding result [3]: no binding
BEBat1 T-0, MST (dsDNA) DNA 1: TAGACTAAGAGAAGCAAAGACGTTATATGC DNA 2: GCATATAACGTCTTTGCTTCTCTTAGTCTA				Kd [1]: 132 nM
BEBat2, EMSA (dsDNA) DNA 1: TAGACTTTGTTGAAAAGTTGTAAAAACATTATATGC DNA 2: GCATATAATGTTTTTACAACTTTTCAACAAAGTCTA		no binding	binds	binding result [3]: no binding
BEBat1 G-0, MST (dsDNA) DNA 1: TAGACGAAGAGAAGCAAAGACGTTATATGC DNA 2: GCATATAACGTCTTTGCTTCTCTTCGTCTA	binds			
BEBat1 (T0), EMSA (dsDNA) DNA 1: TAGACTAAGAGAAGCAAAGACGTTATATGC DNA 2: GCATATAACGTCTTTGCTTCTCTTAGTCTA		no binding	no binding	
BEBat1 C-0, MST (dsDNA) DNA 1: TAGACCAAGAGAAGCAAAGACGTTATATGC DNA 2: GCATATAACGTCTTTGCTTCTCTTGGTCTA	binds			
